Columns and labels:
[1] = Superose gel exclusion chromatography, self-association
[2] = aggregate size given for comparison with the gel exclusion result, self-association

| Substance | aggregate size [1] | aggregate size [2] |
| --- | --- | --- |
| alpha A crystallin Δ51+ construct | calculated to be 60,000 daltons, which corresponds in size to a tetramer |  |
| wild type α-crystallin (alpha A crystallin) |  | about 800,000 daltons, depending on solution conditions |
